Here are results for 23 molecules from patent publication US20260176378A1 (DYAX, published 2026).

The chains are these.
B1: M29-G08 (Fab, V domains shown)
VH: EVQLLESGGGLVQPGGSLRLSCAASGFTFSYYHMWWVRQAPGKGLEWVSGISPSGGFTFYADSVKGRFTISRDNSKNTLYLQMNSLRAEDTAVYYCARDYYYDSSGYSPLGYWGQGTLVTVSS
VL: DIQMTQSPATLSASPGETVTLSCRASQNIGNDVAWYRQRPGQAPRLLIHHASTRAYGIPARLRGSGSATEFTLTITSLEPEDFAIYYCQQFYDWPAHTFALGTRLEIKR
B2: M76-G02 (Fab, V domains shown)
VH: EVQLLESGGGLVQPGGSLRLSCAASGFTFSLYAMWWVRQAPGKGLEWVSYISSSGGFTSYADSVKGRFTISRDNSKNTLYLQMNSLRAEDTAVYYCARYRVGVAATDYWGQGTLVTVSS
VL: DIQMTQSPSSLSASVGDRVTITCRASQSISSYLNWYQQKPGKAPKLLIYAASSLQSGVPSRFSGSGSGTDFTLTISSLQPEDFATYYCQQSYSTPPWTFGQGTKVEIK
B3: M28-F07 (Fab, V domains shown)
VH: EVQLLESGGGLVQPGGSLRLSCAASGFTFSDYTMYWVRQAPGKGLEWVSSIVPSGGHTLYADSVKGRFTISRDNSKNTLYLQMNSLRAEDTAVYYCAKDHLSSWYGGFFDYWGQGTLVTVSS
VL: DIQMTQSPSSVSASVGDRVTITCRASQGISSWLAWYQQKPGKAPKLLIYATSGLQSGVPSRFSGSGSGTDFTLTISSLQPEDFATYYCQQAKSFPLTFGGGTRVEIK
B4: M76-H02 (Fab, V domains shown)
VH: EVQLLESGGGLVQPGGSLRLSCAASGFTFSMYWMQWVRQAPGKGLEWVSYIYPSGGPTKYADSVKGRFTISRDNSKNTLYLQMNSLRAEDTAVYYCARPSGSYGDAFDIWGQGTMVTVSS
VL: DIQMTQSPSSLSASEGDRVTITCRASQDISVYLNWYQMKSGKAPKLLIYGGASLQSGVPARFSGSGYGTDFTLTITDLRPEDFATYYCQQSYSLPFTFGGGTKVEIK
B5: M8-C04 (Fab, V domains shown)
VH: EVQLLESGGGLVQPGGSLRLSCAASGFTFSYYPMQWVRQAPGKGLEWVSYIYPSGGLTSYADSVKGRFTISRDNSKNTLYLQMNSLRAEDTAVYYCARLFYGSGSVGFEYWGQGTLVTVSS
VL: QSALTQPPSVSVSPGQTASITCSGDKLGDKYTSWHQQKPGQSPVLVIYQDSKRPSGIPERFSGSNSGNTATLTISGTQAMDEADYYCQAWDSSTVFGGGTRLTVL
B6: M8-G09 (Fab, V domains shown)
VH: EVQLLESGGGLVQPGGSLRLSCAASGFTFSLYEMLWVRQAPGKGLEWVSVIYPSGGYTDYADSVKGRFTISRDNSKNTLYLQMNSLRAEDMAVYYCARSFSGFGEIDYWGQGTLVTVSS
VL: DIQMTQSPSSLSASVGDTVTITCRASQGVSYYLAWFQQKPGKAPKSLIYGASSLQSGVPSKFSGSGSGTVFTLTISSLQPDDFATYYCQQYNTYPPTFGQGTRLDIK
B7: M28-F01 (Fab, V domains shown)
VH: EVQLLESGGGLVQPGGSLRLSCAASGFTFSVYLMHWVRQAPGKGLEWVSGISPSGGYTQYADSVKGRFTISRDNSKNTLYLQMNSLRAEDTAVYYCARPGGLDAFDIWGQGTMVTVSS
VL: DIQMTQSPSSLSASVGDRVTITCRASQSINTYLNWYQQKPGKAPKVLIHAASTLESGVPSRFSGSGSGTDFTLTISSLQPEDFATYYCQQSYSTPPTFGQGTKVEIK
B8: M76-F02 (Fab, V domains shown)
VH: B7 VH with V31L, L33D, H35N, Y57Q, Q59M, P99Q, G100P, G101M, L102I, D103S
VL: DIQMTQSPSSLSASVGDRVTITCRASQTIDNYLHWYQQKPGKAPKVLIHDASSLQSGVPPRFSGSGSGTDFTLTISSLQPEDFATYYCQQSYDTPQYTFGQGTKLEIK
B9: M77-C07 (Fab, V domains shown)
VH: B2 VH with A33I, W35G, Y50G, S52Y, S53P, S59M, Y99E, R100S, V101S, T106P
VL: B7 VL with S10T, S28N, N30S, T31S, V46L, H49Y, T53S, E55Q, Y87S, P96R
B10: M29-G10 (Fab, V domains shown)
VH: EVQLLESGGGLVQPGGSLRLSCAASGFTFSFYKMIWVRQAPGKGLEWVSSISSSGGSTQYADSVKGRFTISRDNSKNTLYLQMNSLRAEDTAVYYCARDRVDLGYLDYWGQGTLVTVSS
VL: DIQMTQSPSSLSSSVGDSATITCRASQSISIYLNWYQQKPGKAPKILIYGASQLESGVPSRFSGSGSGTDFTLTVSGLQPEDFATYWCQQSYNVPYTFGQGTKLEIK
B11: M29-D10 (Fab, V domains shown)
VH: EVQLLESGGGLVQPGGSLRLSCAASGFTFSWYPMYWVRQAPGKGLEWVSSIGSSGGPTPYADSVKGRFTISRDNSKNTLYLQMNSLRAEDTAVYYCARWADYGGSLDYWGQGTLVTVSS
VL: DIQMTQSPSSLSASVGDTVSITCRASQSITIYLNWYQHKPGKAPNLLIYGASNLHSGVPSRFSGSGSGTDFTLTISSLQPEDFATYYCQQSYDTPLTFGGGTKVEIK
B12: M74-A07 (Fab, V domains shown)
VH: EVQLLESGGGLVQPGGSLRLSCAASGFTFSQYLMMWVRQAPGKGLEWVSSIYPSGGYTSYADSVKGRFTISRDNSKNTLYLQMNSLRAEDTAVYYCARVSTAVADNDYWGQGTLVTVSS
VL: DIQMTQSPSSLSASVRDRVTITCRTSQNINTYLNWYYQAPGRAPKLLIFGVSSLHRGVSSRFSGSGDGTEFTLTISSLQPEDIGTYFCQQSYSSPWTFGQGTKVEIK
B13: M6-D03 (Fab, V domains shown)
VH: B12 VH with Q31K, L33F, M35G, S50V, Y52G, P53S, Y57W
VL: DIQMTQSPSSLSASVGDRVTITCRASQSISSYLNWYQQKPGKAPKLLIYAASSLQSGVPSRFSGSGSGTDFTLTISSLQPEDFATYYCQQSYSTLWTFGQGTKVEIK
B14: M6-A06 (Fab, V domains shown)
VH: B12 VH with Q31L, L33Q, M35T, S50G, Y52W, Y57F, S59D
VL: DIQMTQSPSSLSASVGDSVTISCRASQSISMYLNWYQHKPGKAPKLLIYGTSSLQSGVPSRFSGSGPGGTDFTLTISSLQPEDFATYYCQQSYSAPWTFGQGTKVEIK
B15: M6-A08 (Fab, V domains shown)
VH: EVQLLESGGGLVQPGGSLRLSCAASGFTFSPYPMQWVRQAPGKGLEWVSSISSSGGMTEYADSVKGRFTISRDNSKNTLYLQMNSLRAEDTAVYYCARDDYGGKGGAFDIWGQGTMVTVSS
VL: DIQMTQSPSSLSASVGDRVTITCRASQRISFYLNWFQQKPGKAPNLLIYGASSLQSGVPSRFSGSGSGTDFTLTISSLQPKDFGTYYCQQTFSTPNTFGQGTKLEIK
B16: M6-D08 (Fab, V domains shown)
VH: EVQLLESGGGLVQPGGSLRLSCAASGFTFSRYHMVWVRQAPGKGLEWVSSISPSGGWTNYADSVKGRFTISRDNSKNTLYLQMNSLRAEDTAMYYCAREMATIAGQFDPWGQGTLVTVSS
VL: DIQMTQSPSSLSASVGDRVTITCRASQSISSYLNWYQQKPGKAPKLLIYGASSLQSGVPSRFSGSGSGTDFTLTISSLQPEDSATYYCQQSYTRWTFGQGTKVEIK
B17: M29-E02 (Fab, V domains shown)
VH: EVQLLESGGGLVQPGGSLRLSCAASGFTFSRYPMMWVRQAPGKGLEWVSVIYPSGGDTFYADSVKGRFTISRDNSKNTLYLQMNSLRAEDTAVYYCASGDDYLWEAAVYWGQGTLVTVSS
VL: QSVLTQPPSVSEAPRQRVTISCSGSSSNIGNNAVSWYQQLPGKAPKLLIYYDDLLPSGVSDRFSGSKSGTSASLAISGLRSEDEADYYCAAWDDSLNGFVFGTGTKVTVL
B18: M8-E06 (Fab, V domains shown)
VH: EVQLLESGGGLVQPGGSLRLSCAASGFTFSHYFMTWVRQAPGKGLEWVSSIVPSGGMTQYADSVKGRFTISRDNSKNTLYLQMNSLRAEDTAVYYCARDSYSSSWFDIWGQGTMVTVSS
VL: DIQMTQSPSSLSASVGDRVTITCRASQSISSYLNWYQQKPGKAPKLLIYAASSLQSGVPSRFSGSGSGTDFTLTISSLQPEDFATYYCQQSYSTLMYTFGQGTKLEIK
B19: M76-G06 (Fab, V domains shown)
VH: EVQLLESGGGLVQPGGSLRLSCAASGFTFSGYIMHWVRQAPGKGLEWVSWIYPSGGWTEYADSVKGRFTISRDNSKNTLYLQMNSLRAEDTAVYYCARDAPGVGAIDYWGQGTLVTVSS
VL: DIQMTQSPSSLSASVRDRVTITCRASQSISTYLNWYQQKPGEAPKLLVFAASSLQSGVPSRFSGSGSGTDFTLSISSLQPEDFATYYCQQSYSTPHTFGQGAKVEIK
B20: M29-C07 (Fab, V domains shown)
VH: EVQLLESGGGLVQPGGSLRLSCAASGFTFSGYDMMWVRQAPGKGLEWVSVISSSGGNTAYADSVKGRFTISRDNSKNTLYLQMNSLRAEDTAVYYCARESSGLYYFDYWGQGTLVTVSS
VL: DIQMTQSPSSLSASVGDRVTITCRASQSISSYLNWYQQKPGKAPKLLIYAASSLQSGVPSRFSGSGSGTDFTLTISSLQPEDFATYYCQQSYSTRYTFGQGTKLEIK
B21: M77-H04 (Fab, V domains shown)
VH: EVQLLESGGGLVQPGGSLRLSCAASGFTFSYYTMIWVRQAPGKGLEWVSGIRSSGGGTRYADSVKGRFTISRDNSKNTLYLQMNSLRAEDTAVYYCAKDGSRYSYGSIYYYYGMDAWGQGTTVTVSS
VL: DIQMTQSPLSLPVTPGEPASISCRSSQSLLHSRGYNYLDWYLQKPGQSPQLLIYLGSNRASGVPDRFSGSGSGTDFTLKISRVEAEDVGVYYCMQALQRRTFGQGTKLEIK
B22: M8-D05 (Fab, V domains shown)
VH: EVQLLESGGGLVQPGGSLRLSCAASGFTFSLYNMNWVRQAPGKGLEWVSSISPSGGFTDYADSVKGRFTISRDNSKNTLYLQMNSLRAEDTAVYYCARDLDLGILDYWGQGTLVTVSS
VL: DIQMTQSPSFVSASVGDRVTITCRASQDISSWLVWYQQKPGKGPKLLIYDASNLQSGVPSRFSGGGSGTHFTLTISSLQPEDFATYYCQQADGFPLTFGGGTKVEMK
B23: M6-G05 (Fab, V domains shown)
VH: EVQLLESGGGLVQPGGSLRLSCAASGFTFSRYRMVWVRQAPGKGLEWVSSIYPSGGMTAYADSVKGRFTISRDNSKNTLYLQMNSLRAEDTAVYYCARDAVGIGDAFDIWGQGTMVTVSS
VL: DIQMTQSPSSLSASVGDRVTITCRASQSISTYLNWYQLKPGKAPKLLIYNAFSMERGVPSTISGSGSGTDFTLTISSLQPEDFATYYCQQSYTTPTTFGQGTKVEIK

Positions count from the first letter of the chain named.

T1 sequence (P03952 20-390 limits assumed, chain 1 of 2): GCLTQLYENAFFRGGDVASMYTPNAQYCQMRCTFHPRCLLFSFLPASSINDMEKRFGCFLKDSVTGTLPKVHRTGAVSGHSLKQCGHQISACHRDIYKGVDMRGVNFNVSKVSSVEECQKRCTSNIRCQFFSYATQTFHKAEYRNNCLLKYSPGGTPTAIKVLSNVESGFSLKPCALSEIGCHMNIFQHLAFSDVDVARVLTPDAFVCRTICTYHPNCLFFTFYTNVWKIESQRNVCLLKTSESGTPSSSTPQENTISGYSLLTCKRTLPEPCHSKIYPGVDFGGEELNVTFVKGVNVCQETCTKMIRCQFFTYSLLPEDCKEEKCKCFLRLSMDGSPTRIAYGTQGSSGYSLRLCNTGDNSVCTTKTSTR
T1 sequence (P03952 391-638 limits assumed, chain 2 of 2): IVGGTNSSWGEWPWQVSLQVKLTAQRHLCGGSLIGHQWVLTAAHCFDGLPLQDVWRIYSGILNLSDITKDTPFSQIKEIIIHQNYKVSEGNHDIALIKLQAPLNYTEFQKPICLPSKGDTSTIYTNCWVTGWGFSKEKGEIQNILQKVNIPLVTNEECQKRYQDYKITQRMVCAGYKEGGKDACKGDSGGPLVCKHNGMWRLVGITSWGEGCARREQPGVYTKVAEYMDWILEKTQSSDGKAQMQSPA

The assay concerns the target T1, human plasma kallikrein (human, UniProt P03952 20-390; P03952 391-638).
T1 construct: two disulfide-linked chains; NP_000883.2; also called pKal; hpKal
The experiment in a line: ELISA, biotinylated pKal signal over streptavidin background.
Turning to B1, the “ELISA (T/B)” value was determined as 40.4.

Take B2: the “ELISA (T/B)” value was determined as 10.3. For B3, the “ELISA (T/B)” value turned out to be 33. As for B4, the figure is 13.4. As for B5, the figure is 44.7; as for B6, 28.2.

As for B7, the “ELISA (T/B)” value turned out to be 1.5. The result for B8 reads 6.4.

As to B9, the “ELISA (T/B)” value came out at 16.1. Consider B10, for which the “ELISA (T/B)” value was 16.4.

In the case of B11, the “ELISA (T/B)” value was determined as 23.6.

Turning to B12, the “ELISA (T/B)” value is 8.6. As for B13, the figure is 15.5; as for B14, 11.7. As for B15, the figure is 23.4; as for B16, 16.

Turning to B17, the “ELISA (T/B)” value is 2. The result for B18 reads 8.8; that for B19, 11.8.

For the molecule B20, the “ELISA (T/B)” value is 5.2. B21: the “ELISA (T/B)” value is 7.6. As to B22, the “ELISA (T/B)” value is 11.9. Take B23: the “ELISA (T/B)” value came out at 18.5.
